{"source": "patent US20260250338A1", "biological_target": "CD16aF allelic variant of CD16a expressed on Jurkat cells (human) (UniProt P08637)", "sequence (P08637 17-254, change not shown)": "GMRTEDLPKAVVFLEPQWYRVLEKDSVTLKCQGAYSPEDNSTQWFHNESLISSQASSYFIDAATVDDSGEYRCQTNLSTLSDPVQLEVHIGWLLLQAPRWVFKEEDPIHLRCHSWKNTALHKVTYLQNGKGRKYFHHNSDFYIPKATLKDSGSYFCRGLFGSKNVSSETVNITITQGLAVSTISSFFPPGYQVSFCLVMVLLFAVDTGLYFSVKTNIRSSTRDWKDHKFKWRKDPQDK", "experiment": "flow cytometry on Jurkat cells expressing CD16aF, conditions as in Example 2"}
{"binder": "Construct 25 (SEQ ID NO: 94), CD117 × CD16a, CD117 binder SEQ ID NO: 84 N-terminal of DARPin #7 (designed binder) MRGSHHHHHHGSDLGQKLLKAAQYGQDDEVRILLAAGADVNAKDWAGKTPLHVAAEAGHLEIVEVLLKAGADVNAKDKAGETPLHLAAEQGHLEIVEVLLKAGADVNAQDEWGQTPADLAAYYGLEDIAEVLQKAAGSPTPTPTTPTPTPTTPTPTPTGSDLGQKLLRAAKKGQDDEVRELLKAGADVNAKDEQGWTPLHNAAWKGHLEIVEVLLKAGADVNAKDVFDWTPLHVAAHFGHLEIVEVLLKAGADVNAQDRAGETPADLAAQAGHEDIAEVLQKAA", "values": [{"measurement": "EC50", "result": 0.0232, "unit": "µM"}]}
